The target of test [1] is PCSK9-FLAG (Pan troglodytes (Chimpanzee); Homo sapiens (Human)) (UniProt A8T644). Kind of test: AlphaScreen competition, matrilin-2 at 11 nM; inhibition of PCSK9-Flag binding to His-tagged LDL receptor (competitor LDLR), relative to maximum signal without matrilin-2. For orientation: In Alpha technology, singlet oxygen from a donor bead excites a nearby acceptor bead.
For test [2] the target is unchanged. The experiment in a line: AlphaScreen, His-tagged matrilin-2 at log [Matrilin] uM -2.817405 with PCSK9-FLAG; triplicate, SD 412.
For test [3] the target is unchanged. The experiment in a line: AlphaScreen, His-tagged matrilin-2 at log [Matrilin] uM -1.386041 with PCSK9-FLAG; triplicate, SD 1634.
Test [4] shares this target. The experiment in a line: AlphaScreen, His-tagged matrilin-2 at log [Matrilin] uM -2.340283 with PCSK9-FLAG; triplicate, SD 469.
For test [5] the target is unchanged. Kind of test: AlphaScreen, His-tagged matrilin-2 at log [Matrilin] uM -0.4317983 with PCSK9-FLAG; triplicate, SD 2548.
Test [6] has the same target. The experiment in a line: AlphaScreen competition, matrilin-2 at 1.3 nM; inhibition of PCSK9-Flag binding to His-tagged LDL receptor (competitor LDLR), relative to maximum signal without matrilin-2.
Test [7] shares this target. The experiment in a line: AlphaScreen, His-tagged matrilin-2 at log [Matrilin] uM -1.863162 with PCSK9-FLAG; triplicate, SD 1131.
Test [8] has the same target. The experiment in a line: AlphaScreen, His-tagged matrilin-2 at log [Matrilin] uM -3.294526 with PCSK9-FLAG; triplicate, SD 495.
Test [9] has the same target. Kind of test: AlphaScreen, His-tagged matrilin-2 at log [Matrilin] uM -3.771647 with PCSK9-FLAG; triplicate, SD 220.
The target is the same in test [10]. Kind of test: AlphaScreen competition, matrilin-2 at 3.8 nM; inhibition of PCSK9-Flag binding to His-tagged LDL receptor (competitor LDLR), relative to maximum signal without matrilin-2.
For test [11] the target is unchanged. The experiment in a line: AlphaScreen competition, matrilin-2 at 34 nM; inhibition of PCSK9-Flag binding to His-tagged LDL receptor (competitor LDLR), relative to maximum signal without matrilin-2.
For test [12] the target is unchanged. Kind of test: AlphaScreen competition, matrilin-2 at 0.42 nM; inhibition of PCSK9-Flag binding to His-tagged LDL receptor (competitor LDLR), relative to maximum signal without matrilin-2.
For test [13] the target is unchanged. The experiment in a line: AlphaScreen, His-tagged matrilin-2 at log [Matrilin] uM -0.9089195 with PCSK9-FLAG; triplicate, SD 3028.
Test [14] shares this target. The experiment in a line: AlphaScreen competition, matrilin-2 at 0.14 nM; inhibition of PCSK9-Flag binding to His-tagged LDL receptor (competitor LDLR), relative to maximum signal without matrilin-2.

Sequence of UniProt A8T644 (A8T644 31-152 limits assumed, chain 1 of 2): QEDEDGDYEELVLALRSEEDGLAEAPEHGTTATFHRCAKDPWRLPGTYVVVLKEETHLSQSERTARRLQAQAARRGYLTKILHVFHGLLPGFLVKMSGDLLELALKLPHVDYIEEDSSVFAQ
Sequence of UniProt A8T644 (A8T644 other isoform, or with tags, fused parts or gaps limits assumed, chain 2 of 2): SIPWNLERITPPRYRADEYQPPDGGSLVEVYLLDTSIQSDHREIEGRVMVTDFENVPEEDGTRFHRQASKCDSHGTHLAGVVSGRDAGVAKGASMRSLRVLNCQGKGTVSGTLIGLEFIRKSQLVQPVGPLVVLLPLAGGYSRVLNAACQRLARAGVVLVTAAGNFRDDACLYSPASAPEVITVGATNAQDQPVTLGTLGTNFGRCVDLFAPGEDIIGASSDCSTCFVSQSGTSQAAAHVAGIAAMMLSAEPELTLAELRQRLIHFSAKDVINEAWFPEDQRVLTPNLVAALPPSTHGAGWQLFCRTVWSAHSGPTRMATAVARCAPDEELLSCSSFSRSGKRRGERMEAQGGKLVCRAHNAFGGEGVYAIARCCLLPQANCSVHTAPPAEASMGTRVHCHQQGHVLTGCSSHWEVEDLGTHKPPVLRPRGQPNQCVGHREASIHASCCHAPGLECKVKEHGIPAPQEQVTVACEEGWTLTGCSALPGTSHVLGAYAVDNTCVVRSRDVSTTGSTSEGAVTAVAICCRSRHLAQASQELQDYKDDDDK

B1: His-tagged recombinant human matrilin-2 (mature, short isoform, Arg 24-Arg 937; R&D Systems Catalog Number 3044-MN) (protein, not shown: small tags and cut ends)
chain: RERSRGRSISRGRHARTHPQTALLESSCENKRADLVFIIDSSRSVNTHDYAKVKEFIVDILQFLDIGPDVTRVGLLQYGSTVKNEFSLKTFKRKSEVERAVKRMRHLSTGTMTGLAIQYALNIAFSEAEGARPLRENVPRVIMIVTDGRPQDSVAEVAAKARDTGILIFAIGVGQVDFNTLKSIGSEPHEDHVFLVANFSQIETLTSVFQKKLCTAHMCSTLEHNCAHFCINIPGSYVCRCKQGYILNSDQTTCRIQDLCAMEDHNCEQLCVNVPGSFVCQCYSGYALAEDGKRCVAVDYCASENHGCEHECVNADGSYLCQCHEGFALNPDKKTCTKIDYCASSNHGCQHECVNTDDSYSCHCLKGFTLNPDKKTCRRINYCALNKPGCEHECVNMEESYYCRCHRGYTLDPNGKTCSRVDHCAQQDHGCEQLCLNTEDSFVCQCSEGFLINEDLKTCSRVDYCLLSDHGCEYSCVNMDRSFACQCPEGHVLRSDGKTCAKLDSCALGDHGCEHSCVSSEDSFVCQCFEGYILREDGKTCRRKDVCQAIDHGCEHICVNSDDSYTCECLEGFRLAEDGKRCRRKDVCKSTHHGCEHICVNNGNSYICKCSEGFVLAEDGRRCKKCTEGPIDLVFVIDGSKSLGEENFEVVKQFVTGIIDSLTISPKAARVGLLQYSTQVHTEFTLRNFNSAKDMKKAVAHMKYMGKGSMTGLALKHMFERSFTQGEGARPLSTRVPRAAIVFTDGRAQDDVSEWASKAKANGITMYAVGVGKAIEEELQEIASEPTNKHLFYAEDFSTMDEISEKLKKGICEALEDSDGRQDSPAGELPKTVQQPTVQHRYLFEEDNLLRSTQKLSHSTKPSGSPLEEKHDQCKCENLIMFQNLANEEVRKLTQRLEEMTQRMEALENRLRYR
For orientation: % inhibition means the relative decrease from the control value, in per cent. For the molecule B1, the % inhibition in test [1] is 36%; in [6] it was 5.2%; in test [10] it was 17.1%; in test [11], 50.7%; in test [12] it was -0.4%; in test [14] it was 0.1%. Besides, the Alphascreen Signal (counts per second) in test [2] is 12900; in [3], 54000; in test [4], 10100; in test [5], 213000; in [7], 14100; in [8], 18800. The Alphascreen Signal (counts per second) in test [9] is 20200; in test [13], 222000.

The values are drawn from patent US20110150875A1.
